# Assays:
# [1] = target: cell-surface mucins (on HeLa cells); experiment: flow cytometry on cells (anti-His staining, HeLa); conditions: 30 min at 4 °C in the presence of EDTA, n = 3 biologically independent replicates, read off a plot
# [2] = target: cell-surface mucins (on HeLa cells); experiment: flow cytometry on cells; HeLa cells treated with His-tagged mucinases in cold FACS buffer (0.5% BSA in PBS) with 2 mM EDTA and 0.1% benzonase, 30 min on ice (4 °C); EDTA prevents enzyme activity; bound enzyme detected with FITC anti-His; effective (apparent) Kd from fits of normalised MFI
substance,measurement,setting,value
"StcE, zinc metalloprotease (mucinase) from Escherichia coli serotype O157:H7 (from UniProt O82882) Y457W",Kd,[1]; parent: est. 130 nM,0.12 µM
"ddStcE^W366A, engineered StcE (from UniProt O82882 36-898) (enzyme)",Kd,[2],2 µM
"StcE, zinc metalloprotease (mucinase) from Escherichia coli serotype O157:H7 (from UniProt O82882) Y457A",Kd,[1]; parent: est. 130 nM,0.12 µM
"StcE, zinc metalloprotease (mucinase) from Escherichia coli serotype O157:H7 (from UniProt O82882) W366F",Kd,[1]; parent: est. 130 nM,0.095 µM
double deletion StcE (ΔC and ΔINS) (from UniProt O82882) Y457A,Kd,[1]; parent: est. 1300 nM,1.3 µM
ddStcE^H367A (from UniProt O82882 36-898) (enzyme),Kd,[2],2 µM
